# According to paper PMC10038035 (Journal of Enzyme Inhibition and Medicinal Chemistry, 2023):
# B1: His-tagged mouse recombinant PrP (23-231) (domain or fragment)
# chain: not shown
# Target: the molecule itself
# Assay: PrP aggregate formation assay (PAFA, thioflavin T fluorescence)
protein,measurement,value
B1,binding result,binds
